This note sets out measurements from US20130005646A1 (Novo Nordisk, published 2013).

Starred links: 1 amine or outer side, 2 acyl side, 3 side chain; linkers in the order of their positions; H or OH if unused. Positions of bridges follow the written chain, without caps; N, C: chain ends. *: point of attachment. C20 diacid = O=C(O)CCCCCCCCCCCCCCCCCCC(=O)*; γGlu = O=C(O)[C@H](CCC(=O)[*:2])N[*:1]

Test [1] concerns the target T1, human amylin 3(a) receptor (human calcitonin receptor + RAMP-3) (human, UniProt P30988 25-474; O60896 24-148).
T1 sequence (looked up) 1: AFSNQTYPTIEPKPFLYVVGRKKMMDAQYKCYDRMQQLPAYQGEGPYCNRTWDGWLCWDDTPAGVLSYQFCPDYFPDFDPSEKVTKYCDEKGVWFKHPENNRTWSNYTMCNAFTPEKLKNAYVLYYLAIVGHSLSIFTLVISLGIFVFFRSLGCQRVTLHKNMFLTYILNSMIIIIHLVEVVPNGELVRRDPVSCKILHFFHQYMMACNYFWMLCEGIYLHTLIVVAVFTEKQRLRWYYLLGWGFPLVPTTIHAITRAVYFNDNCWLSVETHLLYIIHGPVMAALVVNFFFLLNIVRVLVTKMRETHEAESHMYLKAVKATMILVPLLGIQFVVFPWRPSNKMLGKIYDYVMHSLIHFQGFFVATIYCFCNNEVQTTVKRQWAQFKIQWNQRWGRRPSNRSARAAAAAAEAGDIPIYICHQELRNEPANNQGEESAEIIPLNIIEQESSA
T1 sequence (looked up) 2: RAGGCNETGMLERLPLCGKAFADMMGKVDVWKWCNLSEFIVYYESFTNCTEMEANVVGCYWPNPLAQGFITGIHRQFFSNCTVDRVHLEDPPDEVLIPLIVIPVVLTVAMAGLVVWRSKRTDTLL
Nature of the test: cell-based or functional assay.

Test [2] deals with T2, human calcitonin (a) receptor (human, UniProt P30988 25-474).
T2 sequence (looked up): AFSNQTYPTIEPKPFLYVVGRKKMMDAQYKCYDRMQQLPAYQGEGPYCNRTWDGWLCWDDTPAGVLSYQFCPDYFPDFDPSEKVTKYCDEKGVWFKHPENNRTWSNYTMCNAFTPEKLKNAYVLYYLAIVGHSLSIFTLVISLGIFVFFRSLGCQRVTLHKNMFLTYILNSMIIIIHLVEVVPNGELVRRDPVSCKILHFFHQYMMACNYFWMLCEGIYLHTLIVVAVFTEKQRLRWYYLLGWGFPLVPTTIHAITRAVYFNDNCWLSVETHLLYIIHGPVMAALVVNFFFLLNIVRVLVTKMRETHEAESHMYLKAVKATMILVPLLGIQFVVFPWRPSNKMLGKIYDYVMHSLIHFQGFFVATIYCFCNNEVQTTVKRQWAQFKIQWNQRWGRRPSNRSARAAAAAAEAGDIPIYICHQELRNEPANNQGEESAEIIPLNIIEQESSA
Nature of the test: cell-based or functional assay.

B1: N-alpha-[(S)-4-Carboxy-4-(19-carboxynonadecanoylamino)butyryl]-His-His-[His1,His3,Glu14,His17]-pramlintide (peptide)
peptide: {C20 diacid-γGlu}-HHHCHTATCATQRLAEFLHHSSNNFGPILPPTNVGSNTY-NH2
modifications: disulfide 4-9
SMILES: CC[C@H](C)[C@H](NC(=O)[C@@H]1CCCN1C(=O)CNC(=O)[C@H](Cc1ccccc1)NC(=O)[C@H](CC(N)=O)NC(=O)[C@H](CC(N)=O)NC(=O)[C@H](CO)NC(=O)[C@H](CO)NC(=O)[C@H](Cc1c[nH]cn1)NC(=O)[C@H](Cc1c[nH]cn1)NC(=O)[C@H](CC(C)C)NC(=O)[C@H](Cc1ccccc1)NC(=O)[C@H](CCC(=O)O)NC(=O)[C@H](C)NC(=O)[C@H](CC(C)C)NC(=O)[C@H](CCCNC(=N)N)NC(=O)[C@H](CCC(N)=O)NC(=O)[C@@H](NC(=O)[C@H](C)NC(=O)[C@@H]1CSSC[C@H](NC(=O)[C@H](Cc2c[nH]cn2)NC(=O)[C@H](Cc2c[nH]cn2)NC(=O)[C@H](Cc2c[nH]cn2)NC(=O)CC[C@H](NC(=O)CCCCCCCCCCCCCCCCCCC(=O)O)C(=O)O)C(=O)N[C@@H](Cc2c[nH]cn2)C(=O)N[C@@H]([C@@H](C)O)C(=O)N[C@@H](C)C(=O)N[C@@H]([C@@H](C)O)C(=O)N1)[C@@H](C)O)C(=O)N[C@@H](CC(C)C)C(=O)N1CCC[C@H]1C(=O)N1CCC[C@H]1C(=O)N[C@H](C(=O)N[C@@H](CC(N)=O)C(=O)N[C@H](C(=O)NCC(=O)N[C@@H](CO)C(=O)N[C@@H](CC(N)=O)C(=O)N[C@H](C(=O)N[C@@H](Cc1ccc(O)cc1)C(N)=O)[C@@H](C)O)C(C)C)[C@@H](C)O
Take B1: the “Amylin receptor human EC50” value in test [1] is 0.286 nM. Also, in test [2], the “CTa receptor human EC50” value came out at 0.801 nM.

B2: N-alpha-[(S)-4-Carboxy-4-(19-carboxynonadecanoylamino)butyryl]-[Glu1,Glu14,His17,Arg18]-pramlintide (peptide)
peptide: {C20 diacid-γGlu}-ECNTATCATQRLAEFLHRSSNNFGPILPPTNVGSNTY-NH2
modifications: disulfide 2-7
SMILES: CC[C@H](C)[C@H](NC(=O)[C@@H]1CCCN1C(=O)CNC(=O)[C@H](Cc1ccccc1)NC(=O)[C@H](CC(N)=O)NC(=O)[C@H](CC(N)=O)NC(=O)[C@H](CO)NC(=O)[C@H](CO)NC(=O)[C@H](CCCNC(=N)N)NC(=O)[C@H](Cc1c[nH]cn1)NC(=O)[C@H](CC(C)C)NC(=O)[C@H](Cc1ccccc1)NC(=O)[C@H](CCC(=O)O)NC(=O)[C@H](C)NC(=O)[C@H](CC(C)C)NC(=O)[C@H](CCCNC(=N)N)NC(=O)[C@H](CCC(N)=O)NC(=O)[C@@H](NC(=O)[C@H](C)NC(=O)[C@@H]1CSSC[C@H](NC(=O)[C@H](CCC(=O)O)NC(=O)CC[C@H](NC(=O)CCCCCCCCCCCCCCCCCCC(=O)O)C(=O)O)C(=O)N[C@@H](CC(N)=O)C(=O)N[C@@H]([C@@H](C)O)C(=O)N[C@@H](C)C(=O)N[C@@H]([C@@H](C)O)C(=O)N1)[C@@H](C)O)C(=O)N[C@@H](CC(C)C)C(=O)N1CCC[C@H]1C(=O)N1CCC[C@H]1C(=O)N[C@H](C(=O)N[C@@H](CC(N)=O)C(=O)N[C@H](C(=O)NCC(=O)N[C@@H](CO)C(=O)N[C@@H](CC(N)=O)C(=O)N[C@H](C(=O)N[C@@H](Cc1ccc(O)cc1)C(N)=O)[C@@H](C)O)C(C)C)[C@@H](C)O
Take B2: the “Amylin receptor human EC50” value in test [1] is 0.174 nM. In test [2], the “CTa receptor human EC50” value was 0.753 nM.

B3: N-alpha-[(S)-4-Carboxy-4-(19-carboxynonadecanoylamino)butyryl]-His-His-[His1,Glu14,His17,His29,His35]-pramlintide (peptide)
peptide: {C20 diacid-γGlu}-HHHCNTATCATQRLAEFLHHSSNNFGPILPHTNVGSHTY-NH2
modifications: disulfide 4-9
SMILES: CC[C@H](C)[C@H](NC(=O)[C@@H]1CCCN1C(=O)CNC(=O)[C@H](Cc1ccccc1)NC(=O)[C@H](CC(N)=O)NC(=O)[C@H](CC(N)=O)NC(=O)[C@H](CO)NC(=O)[C@H](CO)NC(=O)[C@H](Cc1c[nH]cn1)NC(=O)[C@H](Cc1c[nH]cn1)NC(=O)[C@H](CC(C)C)NC(=O)[C@H](Cc1ccccc1)NC(=O)[C@H](CCC(=O)O)NC(=O)[C@H](C)NC(=O)[C@H](CC(C)C)NC(=O)[C@H](CCCNC(=N)N)NC(=O)[C@H](CCC(N)=O)NC(=O)[C@@H](NC(=O)[C@H](C)NC(=O)[C@@H]1CSSC[C@H](NC(=O)[C@H](Cc2c[nH]cn2)NC(=O)[C@H](Cc2c[nH]cn2)NC(=O)[C@H](Cc2c[nH]cn2)NC(=O)CC[C@H](NC(=O)CCCCCCCCCCCCCCCCCCC(=O)O)C(=O)O)C(=O)N[C@@H](CC(N)=O)C(=O)N[C@@H]([C@@H](C)O)C(=O)N[C@@H](C)C(=O)N[C@@H]([C@@H](C)O)C(=O)N1)[C@@H](C)O)C(=O)N[C@@H](CC(C)C)C(=O)N1CCC[C@H]1C(=O)N[C@@H](Cc1c[nH]cn1)C(=O)N[C@H](C(=O)N[C@@H](CC(N)=O)C(=O)N[C@H](C(=O)NCC(=O)N[C@@H](CO)C(=O)N[C@@H](Cc1c[nH]cn1)C(=O)N[C@H](C(=O)N[C@@H](Cc1ccc(O)cc1)C(N)=O)[C@@H](C)O)C(C)C)[C@@H](C)O
For the molecule B3, the “Amylin receptor human EC50” value in test [1] was 0.272 nM. For the same molecule, in test [2], the “CTa receptor human EC50” value is 0.198 nM.

B4: N-alpha-[(S)-4-Carboxy-4-(19-carboxynonadecanoylamino)butyryl]-His-His-[His1,His3,Glu14,His17,His29,His35]-pramlintide (peptide)
peptide: {C20 diacid-γGlu}-HHHCHTATCATQRLAEFLHHSSNNFGPILPHTNVGSHTY-NH2
modifications: disulfide 4-9
SMILES: CC[C@H](C)[C@H](NC(=O)[C@@H]1CCCN1C(=O)CNC(=O)[C@H](Cc1ccccc1)NC(=O)[C@H](CC(N)=O)NC(=O)[C@H](CC(N)=O)NC(=O)[C@H](CO)NC(=O)[C@H](CO)NC(=O)[C@H](Cc1c[nH]cn1)NC(=O)[C@H](Cc1c[nH]cn1)NC(=O)[C@H](CC(C)C)NC(=O)[C@H](Cc1ccccc1)NC(=O)[C@H](CCC(=O)O)NC(=O)[C@H](C)NC(=O)[C@H](CC(C)C)NC(=O)[C@H](CCCNC(=N)N)NC(=O)[C@H](CCC(N)=O)NC(=O)[C@@H](NC(=O)[C@H](C)NC(=O)[C@@H]1CSSC[C@H](NC(=O)[C@H](Cc2c[nH]cn2)NC(=O)[C@H](Cc2c[nH]cn2)NC(=O)[C@H](Cc2c[nH]cn2)NC(=O)CC[C@H](NC(=O)CCCCCCCCCCCCCCCCCCC(=O)O)C(=O)O)C(=O)N[C@@H](Cc2c[nH]cn2)C(=O)N[C@@H]([C@@H](C)O)C(=O)N[C@@H](C)C(=O)N[C@@H]([C@@H](C)O)C(=O)N1)[C@@H](C)O)C(=O)N[C@@H](CC(C)C)C(=O)N1CCC[C@H]1C(=O)N[C@@H](Cc1c[nH]cn1)C(=O)N[C@H](C(=O)N[C@@H](CC(N)=O)C(=O)N[C@H](C(=O)NCC(=O)N[C@@H](CO)C(=O)N[C@@H](Cc1c[nH]cn1)C(=O)N[C@H](C(=O)N[C@@H](Cc1ccc(O)cc1)C(N)=O)[C@@H](C)O)C(C)C)[C@@H](C)O
Consider B4, for which the “Amylin receptor human EC50” value in test [1] worked out at 1.03 nM. In addition, in test [2], the “CTa receptor human EC50” value stood at 0.484 nM.
